Results on 3 molecules are retold here after PMC3392930 (The Journal of Cell Biology, 2012).

The target in data set [1] is S-tagged RSP3_(1–160) (Chlamydomonas reinhardtii) (UniProt P12759). In words: pull-down.
Data set [2] concerns the molecule itself. In words: cross-linking.
Data set [3] deals with the molecule itself. In words: cross-linking. The source holds these as a separate data set.

Read-outs that look alike come from different tables or passages of the source.

Molecule His-tagged LC8 (natural protein) returned a stoichiometry N (LC8 per RSP3 (1–160)) in data set [1] of 3.

B1: RSP3_(1–170)-Cys (domain or fragment, Chlamydomonas reinhardtii, UniProt P12759 1-170, looked up)
chain: MVQAKAQQQLYTHAAEPKAVQQRRAKYREDETTQTLPTANIMFDRRVVRGNTYAARILPADATQTQTKGPSPASTKKRTTRTLPPRTPEAVDGRRHIDIQTDVYLEELTDTVPEADTSTQTDAFLDRPPTPLFVPQKTGTDAITQIENGDLFDFDFEVEPILEVLVGKVL
One may read the stoichiometry N as the number of molecules, sites or subunits per partner or assembly. Take B1: the “stoichiometry N” value in “cross-linking [2]” amounted to 2.

B2: RSP3_(1–170)-HAHis (domain or fragment, Chlamydomonas reinhardtii, UniProt P12759 1-170, looked up)
chain: MVQAKAQQQLYTHAAEPKAVQQRRAKYREDETTQTLPTANIMFDRRVVRGNTYAARILPADATQTQTKGPSPASTKKRTTRTLPPRTPEAVDGRRHIDIQTDVYLEELTDTVPEADTSTQTDAFLDRPPTPLFVPQKTGTDAITQIENGDLFDFDFEVEPILEVLVGKVL
As to B2, the “stoichiometry N” value in “cross-linking [3]” came out at 2.
